Numbering of substitutions follows the chain as printed.
T1: ALPL (UniProt P05186 18-501, limits assumed)
T1 construct: whole, on cells; Expressed on ALPL-transfected HEK293 cells; also called tissue-nonspecific, liver/bone/kidney alkaline phosphatase
T1 sequence (looked up): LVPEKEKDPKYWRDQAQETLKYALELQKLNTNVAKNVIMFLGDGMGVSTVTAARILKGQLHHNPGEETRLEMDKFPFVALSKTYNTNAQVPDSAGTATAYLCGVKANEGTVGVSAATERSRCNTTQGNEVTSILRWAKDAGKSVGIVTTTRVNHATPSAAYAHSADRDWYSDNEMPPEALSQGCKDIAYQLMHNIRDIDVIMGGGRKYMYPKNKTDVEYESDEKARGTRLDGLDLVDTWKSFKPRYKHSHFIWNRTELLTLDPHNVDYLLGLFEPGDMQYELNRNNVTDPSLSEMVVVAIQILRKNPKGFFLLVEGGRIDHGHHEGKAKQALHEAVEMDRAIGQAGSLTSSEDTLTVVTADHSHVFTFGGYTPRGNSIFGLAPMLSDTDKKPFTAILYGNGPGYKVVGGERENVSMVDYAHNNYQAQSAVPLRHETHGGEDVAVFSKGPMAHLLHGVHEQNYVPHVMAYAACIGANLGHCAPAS

T2: ALPI (UniProt P09923 20-503, limits assumed)
T2 construct: whole, on cells; Expressed on ALPI-transfected HEK293 cells; also called intestinal alkaline phosphatase
T2 sequence (looked up): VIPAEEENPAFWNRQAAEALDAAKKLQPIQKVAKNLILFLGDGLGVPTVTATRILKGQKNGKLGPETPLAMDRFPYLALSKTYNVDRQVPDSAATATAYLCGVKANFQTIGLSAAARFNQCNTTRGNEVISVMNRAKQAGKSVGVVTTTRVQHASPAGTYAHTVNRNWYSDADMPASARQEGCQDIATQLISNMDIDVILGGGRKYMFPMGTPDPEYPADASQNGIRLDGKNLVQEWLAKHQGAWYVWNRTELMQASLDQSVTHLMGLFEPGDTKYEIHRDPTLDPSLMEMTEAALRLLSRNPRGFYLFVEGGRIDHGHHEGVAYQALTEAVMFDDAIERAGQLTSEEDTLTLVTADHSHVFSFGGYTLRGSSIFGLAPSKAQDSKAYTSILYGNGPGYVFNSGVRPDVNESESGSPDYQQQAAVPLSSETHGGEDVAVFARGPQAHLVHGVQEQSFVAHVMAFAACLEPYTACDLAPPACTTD

B1: M25ADLF IgG1 (antibody, V domains shown)
VH: QVQLQQSGGGLVKPGGSLRLSCAASGFTFSSYDMHWVRQAPGKGLEWVAVISYDGSNKYYADSVKGRFTISRDNSKNTLYLQMDSLRAEDTAVYFCAKEGDSSRWSYDLWGRGTLVTVSS
VL: QSALTQPASVSGSPGQSITISCTGTSSDVGGYNYVSWYQQHPGKAPKVMIYDVTNRPSGVSNRFSGSKSGNTASLTISGLQAEDEADYYCSSYTSTSTFVVFGGGTKLTVLG
notes: Tested as human IgG1; Residue limits are from CLM-00120
B2: M25FYIA IgG1 (antibody, V domains shown)
VH: B1 VH with D33A, F95Y
VL: QSALTQPASVSGSPGQSITISCTGTSSDVGGYNYVSWYQQHPGKAPKVMIYDVTNRPSGVSNRFSGSKSGNTASLTISGLQAEDEADYYCSSYTIASTLVVFGGGTKLTVL
notes: Tested as human IgG1
B3: M25AD IgG1 (antibody, V domains shown)
VH: B1 VH
VL: B2 VL with I95S, A96T
notes: Tested in its IgG1 form; also called a variant of M25
B4: M25 IgG1 (antibody, V domains shown)
VH: B1 VH with D33A
VL: B2 VL with I95S, A96T
notes: also called our M25 antibody; our anti-ALPPL2 antibody M25

What was measured:
ALPP = target: T3, ALPP (human, UniProt P05187 23-506); assay: FACS on live ALPP-transfected HEK293 cells
T3 construct: Expressed on transfected HEK293 cells; also called placentally expressed ALPP
T3 sequence (P05187 23-506 limits assumed): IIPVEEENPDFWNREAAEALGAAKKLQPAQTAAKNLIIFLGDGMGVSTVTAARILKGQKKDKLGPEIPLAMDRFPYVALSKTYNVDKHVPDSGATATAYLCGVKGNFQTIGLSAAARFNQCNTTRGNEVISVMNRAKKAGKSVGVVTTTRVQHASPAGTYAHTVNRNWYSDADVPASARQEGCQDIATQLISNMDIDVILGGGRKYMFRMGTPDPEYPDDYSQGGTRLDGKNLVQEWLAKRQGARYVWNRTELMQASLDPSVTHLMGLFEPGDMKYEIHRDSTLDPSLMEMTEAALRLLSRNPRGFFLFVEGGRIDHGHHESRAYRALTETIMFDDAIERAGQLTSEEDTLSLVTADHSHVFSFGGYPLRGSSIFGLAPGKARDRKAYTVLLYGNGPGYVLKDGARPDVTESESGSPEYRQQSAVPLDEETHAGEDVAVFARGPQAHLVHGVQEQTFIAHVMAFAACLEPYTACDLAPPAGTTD

ALPL = target: T1, ALPL; assay: FACS on live transfected HEK293 cells, IgG1
ALPPL2 [1] = target: T4, ALPPL2 (human, UniProt P10696 20-503); assay: FACS on live HEK293 cells transfected with ALPPL2 (GFP+ gated), curve fit of normalized MFI; ALPPL2-transfected HEK293 cells
T4 construct: Expressed from an ALPPL2 plasmid or cDNA on HEK293 cells, and endogenous on tumor cells; also called placentally expressed ALPPL2; membrane ALPPL2
T4 sequence (P10696 20-503 limits assumed): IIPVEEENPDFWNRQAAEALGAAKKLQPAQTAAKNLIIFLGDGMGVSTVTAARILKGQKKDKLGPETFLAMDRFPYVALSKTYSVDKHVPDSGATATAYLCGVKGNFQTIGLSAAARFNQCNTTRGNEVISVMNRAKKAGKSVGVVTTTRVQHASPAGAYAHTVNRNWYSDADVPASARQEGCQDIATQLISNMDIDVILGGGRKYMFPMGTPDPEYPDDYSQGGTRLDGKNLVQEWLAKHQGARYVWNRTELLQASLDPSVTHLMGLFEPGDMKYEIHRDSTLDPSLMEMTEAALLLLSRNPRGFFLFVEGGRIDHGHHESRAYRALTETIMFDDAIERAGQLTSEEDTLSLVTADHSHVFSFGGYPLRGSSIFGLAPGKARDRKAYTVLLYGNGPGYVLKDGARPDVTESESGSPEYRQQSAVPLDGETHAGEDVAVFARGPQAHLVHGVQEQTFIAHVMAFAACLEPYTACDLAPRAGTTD
Description: (§1) Cells were incubated with antibody at room temperature for 1h in PBS/0.2% fetal calf serum, washed three times and further incubated with ALEXAFLOU®-647-labeled anti-human secondary antibody. GFP+ cells were gated and analyzed for mean fluorescence intensity (MFI). […] Similar binding results were obtained on ALPP-transfected cells. There is no binding to ALPL-transfected cells.

ALPPL2 [2] = target: T4, ALPPL2; assay: apparent affinity on tumor cells, IgG1; method and cell line not stated; tumor cells, IgG1 form
ALPPL2 [3] = target: T4, ALPPL2; assay: FACS on live HEK293 cells transfected with ALPPL2 (GFP+ gated), curve fit of normalized MFI
Description: as §1, with “either ALPL or ALPI-transfected” for “ALPL-transfected”

ALPI = target: T2, ALPI; assay: FACS on live transfected HEK293 cells, IgG1

| Binder | binding result (ALPP) | binding result (ALPL) | Kd (ALPPL2 [1]) | Kd (ALPPL2 [2]) | Kd (ALPPL2 [3]) | binding result (ALPI) |
| --- | --- | --- | --- | --- | --- | --- |
| B1 | binds | no binding | 0.017 nM | – | – | – |
| B2 | binds | no binding | 0.0204 nM | – | – | – |
| B3 | – | – | – | 0.028 nM | – | – |
| B4 | binds | no binding | – | – | 0.506 nM | no binding |

Source: patent US20240374748A1 (University of California, published 2024)
